Measurements published in patent publication US6794144.

What was measured:
[1] = target: GST-Nef (HIV-1 NL4-3 Nef containing a T71R change) (HIV-1 NL4-3) [GST: P08515]
[2] = target: GST-NefR90 (HIV-1 Nef carrying an F90R mutation) (HIV-1) [GST: P08515]
[3] = target: GST-Nef (HIV-1 NL4-3 Nef containing a T71R change) (HIV-1 NL4-3) [GST: P08515]; assay: competition plate assay: unlabeled GST-SH3 vs biotinylated Hck-SH3 probe (66 nM) on immobilized GST-Nef
[4] = target: GST-Nef (HIV-1 NL4-3 Nef containing a T71R change) (HIV-1 NL4-3) [GST: P08515]; remark: listed apart in the source
[5] = target: GST-NefR90 (HIV-1 Nef carrying an F90R mutation) (HIV-1) [GST: P08515]; remark: listed apart in the source
[6] = target: GST-Nef (HIV-1 NL4-3 Nef containing a T71R change) (HIV-1 NL4-3) [GST: P08515]; assay: calculated from competition with Hck-SH3 probe on immobilized Nef, based on KD 250 nM of Hck-SH3/Nef
[7] = target: GST-NefR90 (HIV-1 Nef carrying an F90R mutation) (HIV-1) [GST: P08515]; assay: estimated from competition by Hck-SH3 and the earlier KD 1.99 µM of Hck-SH3/NefR90

Row | Substance | inhibition at an equimolar probe:competitor ratio [1] [%] | inhibition at an equimolar probe:competitor ratio [2] [%] | ratio of competitor per probe giving 50% inhibition (1:x competitor:probe) [3] | IC50 [4] [nM] | fold excess over the probe needed for 50% inhibition [4] [fold] | IC50 [5] [nM] | fold molar excess over the probe needed for 50% inhibition [5] [fold] | Kd [6] [nM] | Kd [7] [nM]
1 | GST-RRT.m2 (Hck-derived RRT-SH3 domain selected on NefR90, RT-loop NAFLPS) (from UniProt P08631 62-118) (designed binder) | < 5 | 73 | 2 | – | – | – | – | – | –
2 | GST-RRT.B4 (Hck-derived RRT-SH3 domain, RT-loop FSPFDW) (from UniProt P08631 62-118) (designed binder) | 41 | 37 | 21 | – | – | – | – | – | –
3 | GST-Hck-SH3 (native Hck SH3 domain, GST fusion protein) (from UniProt P08631 78-138) | < 5 | < 5 | 1 | > 850 | > 100 | > 1100 | > 16 | – | –
4 | GST-RRT.D1 (Hck-derived RRT-SH3 domain, RT-loop SSFYSS) (from UniProt P08631 62-118) (designed binder) | 45 | 17 | 22 | – | – | – | – | – | –
5 | GST-RRT.C1 (Hck-derived RRT-SH3 domain, RT-loop TSPFPW) (from UniProt P08631 62-118) (designed binder) | 39 | < 5 | 31 | – | – | – | – | 7 | –
6 | GST-RRT.B2 (Hck-derived RRT-SH3 domain, RT-loop DSPFSF) (from UniProt P08631 62-118) (designed binder) | 22 | 26 | 22 | – | – | – | – | – | –
7 | GST-RRT.B6 (Hck-derived RRT-SH3 domain, RT-loop YSPFSW) (from UniProt P08631 62-118) (designed binder) | 51 | 14 | 37 | – | – | – | – | 7 | –
8 | GST-RRT.m3 (Hck-derived RRT-SH3 domain selected on NefR90, RT-loop EAWSPL) (from UniProt P08631 62-118) (designed binder) | 22 | 62 | 17 | – | – | – | – | – | –
9 | GST-RRT.C2 (Hck-derived RRT-SH3 domain, RT-loop YSFFPW) (from UniProt P08631 62-118) (designed binder) | 20 | 13 | 16 | – | – | – | – | – | –
10 | GST-RRT.A1 (Hck-derived RRT-SH3 domain, RT-loop VSWSPD) (from UniProt P08631 62-118) (designed binder) | 55 | 52 | 35 | – | – | – | – | 7 | < 100
11 | GST-RRT.B1 (Hck-derived RRT-SH3 domain, RT-loop WSPFPS) (from UniProt P08631 62-118) (designed binder) | 41 | 9 | 26 | – | – | – | – | – | –
12 | GST-RRT.C3 (Hck-derived RRT-SH3 domain, RT-loop YSDFPW) (from UniProt P08631 62-118) (designed binder) | 42 | 20 | 26 | – | – | – | – | – | –
13 | GST-RRT.A2 (Hck-derived RRT-SH3 domain, RT-loop FSWSDT) (from UniProt P08631 62-118) (designed binder) | 20 | 53 | 19 | – | – | – | – | – | –
14 | GST-RRT.A4 (Hck-derived RRT-SH3 domain, RT-loop YSWSDM) (from UniProt P08631 62-118) (designed binder) | 34 | 44 | 10 | – | – | – | – | – | –
15 | GST-RRT.m1 (Hck-derived RRT-SH3 domain selected on NefR90, RT-loop QGFLDQ) (from UniProt P08631 62-118) (designed binder) | < 5 | 73 | 0.8 | – | – | – | – | – | –
16 | GST-RRT.m4 (Hck-derived RRT-SH3 domain selected on NefR90, RT-loop ESYSEW) (from UniProt P08631 62-118) (designed binder) | < 5 | 46 | – | – | – | – | – | – | –
17 | GST-RRT.C4 (Hck-derived RRT-SH3 domain, RT-loop DSWFPW) (from UniProt P08631 62-118) (designed binder) | 10 | 19 | 14 | – | – | – | – | – | –
